Test results from article PMC8760265.

Biological target: CDK9 (UniProt P50750)
Assay: co-IP with FLAG or HA antibody, immunoblot
Conditions: reference: HA-TRIM28 wild type; sites S824

binding against the reference: weaker
Substance: TRIM28 (from UniProt Q13263) HA-TRIM28-S824A
